According to paper doi:10.1101/2022.10.28.514248 (bioRxiv, 2022):

Target: the molecule itself
Assay: crystal structure

B1: GDAP1ΔTM T157P (Ganglioside-induced differentiation-associated protein 1, amino acids 1-322, T157P) (domain or fragment, mouse)
chain: GGSMARRQDEARAGVPLRVEGPPDKEVHLILYHWTHSFSSQKVRLVIAEKALKCEEHDVSLPLSEHNEPWFMRLNSAGEVPVLVHGENIICEATQIIDYLEQTFLDERTPRLMPDEGSMYYPRVQHYRELLDSLPMDAYTHGCILHPELTVDSMIPAYAPTRIRSQIGNTESELKKLAEENPDLQEAYIAKQKRLKSKLLDHDNVKYLKKILDELEKVLDQVETELQRRNEETPEEGNQPWLCGESFTLADVSLAVTLHRLKFLGFARRNWGHGKRPNLETYYERVLKRKTFNKVLGHVNNILISAVLPTAFRVAKKRAPKVLGS
- binding result: binds
